Results published in patent US20120316071A1 (published 2012).

Assays:
[1] = molecular target: T1, Recombinant Human DLL4 (R&D Systems Cat#1506-D4/CF) (human, UniProt Q9NR61 27-524); test: ECL (MSD) binding assay, immobilised DLL4, repeat experiment
T1 construct: Bought recombinant protein; also called delta-like protein 4; rHuman DLL4

[2] = molecular target: T2, rHuman IGF-1 sR (insulin-like growth factor-1 soluble receptor), CF (R&D Systems Cat#391-GR) (human, UniProt P08069 31-932); test: ECL Multispot (MSD) assay, antigen spotted on plate, 10 nM Fab;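 also: purified Fab bound to antigen spots for 1 h at 20 °C, then TAG detection antibody, electrochemiluminescence compared with each well's blank, ratio of 4 or more marks a hit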
T2 construct: Bought recombinant soluble receptor

[3] = molecular target: T3, rHuman P-Cadherin/Fc Chimera, CF (R&D Systems Cat#861-PC) (human, UniProt P22223 108-654); test: as above
T3 construct: Bought recombinant protein

[4] = molecular target: T1, Recombinant Human DLL4 (R&D Systems …); test: as above
[5] = molecular target: T4, rHuman ErbB2/Fc Chimera, CF (R&D Systems Cat#1129-ER) (human, UniProt P04626 23-652); test: as above
T4 construct: Bought recombinant protein

[6] = molecular target: T5, rHuman EGF R/Fc Chimera, CF (R&D Systems Cat#344-ER) (human, UniProt P00533 25-645); test: as above
T5 construct: Bought recombinant protein

[7] = molecular target: T6, rHuman HGF R/c-MET/Fc Chimera, CF (R&D Systems Cat#358-MT/CF) (human, UniProt P08581 25-932); test: as above
T6 construct: Bought recombinant protein; also called HGF R/Fc

[8] = molecular target: T1, Recombinant Human DLL4 (R&D Systems …); test: ECL (MSD) binding assay, DLL4 signal divided by blank, repeat experiment
[9] = molecular target: T7, Recombinant Human DLL4 (delta-like protein 4) (human, UniProt Q9NR61 27-524); test: ELISA, DLL4 coated on plate, Fab at 5 nM, absorbance at 450 nm
T7 construct: Bought recombinant protein (R&D Systems Cat#1506-D4/CF) coated on the ELISA plate; also called rHuman DLL4; Delta-like 4

[10] = molecular target: T7, Recombinant Human DLL4 (delta-like …); test: ELISA, DLL4 coated on plate, Fab at 10 nM, absorbance at 450 nm
[11] = molecular target: T7, Recombinant Human DLL4 (delta-like …); test: ELISA, DLL4 coated on plate, Fab at 20 nM, absorbance at 450 nm
[12] = molecular target: T7, Recombinant Human DLL4 (delta-like …); test: ELISA, DLL4 coated on plate, Fab at 1.3 nM, absorbance at 450 nm
[13] = molecular target: T7, Recombinant Human DLL4 (delta-like …); test: ELISA, DLL4 coated on plate, Fab at 2.5 nM, absorbance at 450 nm
[14] = molecular target: T7, Recombinant Human DLL4 (delta-like …); test: ELISA, DLL4 coated on plate, Fab at 0.16 nM, absorbance at 450 nm
[15] = molecular target: T7, Recombinant Human DLL4 (delta-like …); test: ELISA, DLL4 coated on plate, Fab at 0.31 nM, absorbance at 450 nm
[16] = molecular target: T7, Recombinant Human DLL4 (delta-like …); test: ELISA, DLL4 coated on plate, Fab at 0.63 nM, absorbance at 450 nm
[17] = molecular target: T8, rHuman IGF-1 sR, CF (R&D Systems Cat#391-GR) (human, UniProt P08069 31-932); test: ECL multispot (MSD) binding assay; antigen spotted on plate, Fab in solution, Ru-labelled anti-kappa detection;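 also: purified Fab in 1% BSA TBST incubated 1 h at 20 °C with shaking, signal compared with each well's blank, signal/blank ratio of 4 or above counted as binder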
T8 construct: Bought from R&D Systems as a soluble receptor; also called insulin-like growth factor-1 soluble receptor

[18] = molecular target: T9, rHuman P-Cadherin/Fc Chimera, CF (R&D Systems Cat#861-PC) (human, UniProt P22223 108-654); test: as above
T9 construct: Bought from R&D Systems; Fc part of the bought chimera not given

[19] = molecular target: T10, Recombinant Human DLL4 (R&D Systems Cat#1506-D4/CF) (human, UniProt Q9NR61 27-524); test: as above
T10 construct: Bought from R&D Systems; also called delta-like protein 4; rHuman DLL4

[20] = molecular target: T11, rHuman EGF R/Fc Chimera, CF (R&D Systems Cat#344-ER) (human, UniProt P00533 25-645); test: as above
T11 construct: Bought from R&D Systems; also called epidermal growth factor receptor; Fc part of the bought chimera not given

[21] = molecular target: T12, rHuman HGF R/c-MET/Fc Chimera, CF (R&D Systems Cat#358-MT/CF) (human, UniProt P08581 25-932); test: as above
T12 construct: Bought from R&D Systems; also called HGF R/Fc; hepatocyte growth factor receptor; Fc part of the bought chimera not given

Recombinant Human DLL4 = molecular target: T13, Recombinant Human DLL4 (human, UniProt Q9NR61 27-524); test: ECL (MSD) multispot binding assay, DLL4 spotted on plate, Fab in solution
T13 construct: also called delta-like protein 4; rHuman DLL4

B1: Fab VH1-46_IGHD6-6*01_IGHJ1*01 S102A/S103P/S104F/H111F (APFF) & L6_IGKJ1*01 (Fab, V domains shown)
VH: QVQLVQSGAEVKKPGASVKVSCKASGYTFTSYYMHWVRQAPGQGLEWMGIINPSGGSTSYAQKFQGRVTMTRDTSTSTVYMELSSLRSEDTAVYYCAREEYAPFSAEYFQFWGQGTLVTVSS
VL: not shown
notes: Tested as Fab expressed in E. coli; Heavy chain from Plasmid A (CH1, His6 and Flag tags), kappa light chain from Plasmid C (CL); also called H:APFF & L:wt
ECL signal [1]: 197000 | ECL signal [2]: 397 | ECL signal [3]: 347 | ECL signal [4]: 78400 | ECL signal [5]: 354 | ECL signal [6]: 383 | ECL signal [7]: 347 | Signal/Noise [8]: 694

B2: Fab VH1-46_IGHD6-6*01_IGHJ1*01 S102A/S103P/S104F/H111F/N52L/S54T/G56H (APFF LTH) & L6_IGKJ1*01 (Fab, V domains shown)
VH: QVQLVQSGAEVKKPGASVKVSCKASGYTFTSYYMHWVRQAPGQGLEWMGIILPTGHSTSYAQKFQGRVTMTRDTSTSTVYMELSSLRSEDTAVYYCAREEYAPFSAEYFQFWGQGTLVTVSS
VL: not shown
notes: Tested as a Fab made in E. coli: VH cloned into Plasmid A (CH1, His6 and Flag tags), kappa VL into Plasmid C (kappa CL); also called H:APFF LTH & L:wt
ELISA signal [9]: 2.48 | ELISA signal [10]: 2.35 | ELISA signal [11]: 2.4 | ELISA signal [12]: 0.653 | ELISA signal [13]: 2.15 | ELISA signal [14]: 2.35 | ELISA signal [15]: 2.4 | ELISA signal [16]: 1.37

B3: Fab VH1-46_IGHD6-6*01_IGHJ1*01 S102A/S103P/S104F/H111F F29A & L6_IGKJ1*01 (Fab, V domains shown)
VH: QVQLVQSGAEVKKPGASVKVSCKASGYTATSYYMHWVRQAPGQGLEWMGIINPSGGSTSYAQKFQGRVTMTRDTSTSTVYMELSSLRSEDTAVYYCAREEYAPFSAEYFQFWGQGTLVTVSS
VL: not shown
notes: Tested as a Fab made in E. coli; The heavy chain vector (Plasmid A) adds CH1 with His6 and Flag tags; The light chain vector (Plasmid C) adds kappa CL; also called APFF F29A
ECL signal [17]: 439 | ECL signal [18]: 508 | ECL signal [19]: 109000 | ECL signal [20]: 537 | ECL signal [21]: 512

B4: Fab VH1-46_IGHD6-6*01_IGHJ1*01 S102A/S103P/S104F/H111F I51T/N52V (APFF I51T/N52V) & L6_IGKJ1*01 (Fab, V domains shown)
VH: QVQLVQSGAEVKKPGASVKVSCKASGYTFTSYYMHWVRQAPGQGLEWMGITVPSGGSTSYAQKFQGRVTMTRDTSTSTVYMELSSLRSEDTAVYYCAREEYAPFSAEYFQFWGQGTLVTVSS
VL: not shown
notes: Tested as a Fab made in E. coli: VH in Plasmid A (CH1, His6 and Flag tags), kappa VL in Plasmid C (kappa CL)
ELISA signal [9]: 0.724 | ELISA signal [10]: 0.506 | ELISA signal [11]: 0.648 | ELISA signal [12]: 0.055 | ELISA signal [13]: 0.358 | ELISA signal [14]: 0.506 | ELISA signal [15]: 0.648 | ELISA signal [16]: 0.115

B5: Fab VH1-46_IGHD6-6*01_IGHJ1*01 S102A/S103P/S104F/H111F (APFF) & L6_IGKJ1*01 W94S (Fab, V domains shown)
VH: QVQLVQSGAEVKKPGASVKVSCKASGYTFTSYYMHWVRQAPGQGLEWMGIINPSGGSTSYAQKFQGRVTMTRDTSTSTVYMELSSLRSEDTAVYYCAREEYAPFSAEYFQFWGQGTLVTVSS
VL: EIVLTQSPATLSLSPGERATLSCRASQSVSSYLAWYQQKPGQAPRLLIYDASNRATGIPARFSGSGSGTDFTLTISSLEPEDFAVYYCQQRSNSPPWTFGQGTKVEIKR
notes: Fab from E. coli; VH in Plasmid A (CH1, His6 and Flag tags), VL in Plasmid C (kappa CL); also called APFF & W94S
ECL signal (Recombinant Human DLL4): 109000

B6: Fab VH1-46_IGHD6-6*01_IGHJ1*01 S102A/S103P/S104F/H111F/I51T/N52L/P53A/S54T/G56H (APFF TLATH) & L6_IGKJ1*01 (Fab, V domains shown)
VH: QVQLVQSGAEVKKPGASVKVSCKASGYTFTSYYMHWVRQAPGQGLEWMGITLATGHSTSYAQKFQGRVTMTRDTSTSTVYMELSSLRSEDTAVYYCAREEYAPFSAEYFQFWGQGTLVTVSS
VL: not shown
notes: as for B4
ELISA signal [9]: 1.27 | ELISA signal [10]: 0.875 | ELISA signal [11]: 1.11 | ELISA signal [12]: 0.078 | ELISA signal [13]: 0.592 | ELISA signal [14]: 0.875 | ELISA signal [15]: 1.11 | ELISA signal [16]: 0.227
